Source: the DeepSol protein solubility set

Test: soluble on expression in E. coli; label from the status in PepcDB or PDB records
With “MGNQSARQLSTHRKHVVHTWNTINSHDPQLLSDAISEAWLKSAELTPTWVWALVDLPETMHATYKENAQFLNIINQVRDFLNILIKVHKCDPEMIKTLSFRLGARHRHYMNEGNDNCFWAPFAQQLPIAMSKMYMRVVTEDSKIRRILRIRSRAAEKSEEEEVCESWRQFSCMLIESMKRGYEGCASEKTPLRLSITNSIISMASMRSSRSRSASHFLEPNMSPAIAPMCALLGSTESNSTTTTTQPSSPITPYRRRSMFRAGGALQRNSQDFTALRNRRMSSPNNPSILLNNCDIQLLKLTSQLSPLEDQVKQNRVPGRAHQQRRSITLLNFDHHHRARSPTT” the “soluble on expression in E. coli” value was “not soluble”. In the case of “MGNQSTSSKGSDTKKEQITVKHQLDKNGTKVPKNPKKVVVFDFGSLDTLDKLGLDDIVAGLPKQVLPKYLSKFKDDKYADVGSLKEPDFDKVAELDPDLIIISARQSESYKEFSKIAPTIYLGVDTAKYMESFKSDAETIGKIFDKEDKVKDELANIDHSIADVKKTAEKLNKNGLVIMANDGKISAFGPKSRYGLIHDVFGVAPADQNIKASTHGQSVSYEYISKTNPDYLFVIDRGTAIGETSSTKQVVENDYVKNVNAVKNGHVIYLDSATWYLSGGGLESMTQMIKEVKDGLEKLEHHHHHH”, the “soluble on expression in E. coli” value is reported as “soluble”. With “MGNWAEITDEISKIYQDNQYKIRQINDVDAVSDKRREALQALFEHTGRNVIVYYSAWLENGRRFSGQSTDFSVNDTDKNSFMTALHKLDQSKGLDLILHTPGGDVAATESLVDYIHALFGQDFRVIVPQLAMSAGTMIALSSKEIVMGKHSSLGPIDPQFNGLPAHGLLEEFEQAKKEVSENPQTAHIWQVILNKYNPTMLGEAKKAIQWSNSMVKQWLEKGMFLDEPDKEEKATRAIKELADHSVTLAHNRHISVSKALELGLNIKELESDPKLQDLVLTLHHLSVIAAQRGPLIKFVVNHDNRGTFLQGHEN” the “soluble on expression in E. coli” value was “soluble”. For “MGPVPEFSVIIPARNEAAYLPGTLRALERQTLAPAEVIVVDNASRDQTAQIARSWGAQVLSCPEGGVARARQLGLDTARSSWVATTDADSLPAPGWLAAYAQAALLAGGYPEVEAYEDVILGQNLARLGEIGYVPRALVETSARRLDRGVGPFLIQHLRNLTGHTRGLEHHHHHH”, the “soluble on expression in E. coli” value was “not soluble”. For “MGPYNYGWHDSDEAGKKARRGLDEDVVRYISAQKNEPEWMLEQRLKALNTFEKKPMPTWGPDLSYINFDDFKYYVRSTEKQATTWDDLPEDIKNTYDKLGIPEAEKQRLVAGVAAQYESEVVYHQIREDLETQGVIFLDTDTALKEHPELFQEYFGTVVPAGDNKFSALNSAVWSGGSFVYVPKGVHVEIPLQAYFRINTENMGQFERTLIIVDEGAYVHYVEGCTAPIYQSDSLHSAVVEIIVKKNARCRYTTIQNWSNNVLNLVTQRSKVEEGGTMEWVDGNIGSKVTMKYPAVWMVGPHAKGEVLSAAFAGEGQIQDTGAKMQHMAPYTSSNIVSKSVARSGGRAAYRGLVRVAANAHHSVSNVECDALLVDNISRSDTYPYNDIRNDHVSLGHEATVSQVSEEQLFYLQSRGIAEDEAMAMIVRGFVEPIAKELPMEYALELNRLIELQMEGSVG”, the “soluble on expression in E. coli” value was “not soluble”. With “MGQDQTKKQIEKGLQLYQSNQTEKALQVWTKVLEKSSDLMGRFRVLGCLVTAHSEMGRYKEMLKFAVVQIDTARELEDADFLLESYLNLARSNEKLCEFHKTISYCKTCLGLPGTRAGAQLGGQVSLSMGNAFLGLSVFQKALESFEKALRYAHNNDDAMLECRVCCSLGSFYAQVKDYEKALFFPCKAAELVNNYGKGWSLKYRAMSQYHMAVAYRLLGRLGSAMECCEESMKIALQHGDRPLQALCLLCFADIHRSRGDLELSQLKLHCLSESIYRSKGLQRELRAHVVRFHECVEETELYCGLCGESIGEKNSRLQALPCSHIFHLRCLQNNGTRSCPNCRRSSMKPGFV” the “soluble on expression in E. coli” value was “soluble”. With “MGQSTSKVPPSSPPNEPKFVQNTPISSPGFGRAQTMLDVSQLAAAAATLDAPTLQRSSSDTALNTSMTTTTVTQTACQKSYQQALEWGRNEQFLKLAHTFHTNNY” the “soluble on expression in E. coli” value was “not soluble”. For “MGRKKGLPEFEESAPDGFDPENPYKDPVAMVEMREHIVREKWIQIEKAKILREKVKWCYRVEGVNHYQKCRHLVQQYLDSTRGVGWGKDHRPISLHGPKPEAVEAE”, the “soluble on expression in E. coli” value was “not soluble”. In the case of “MGRKSQRKNATMFDSDDDTSSVSSSSTMPSERLLNPGMDEVTVLKDALLDQSLDALYEKREQALATIVDAFNSDLQYEFVEKKFATLLHQCLHCTKKGSTKETSLATHVIGLLALTVGLGDHAQEVLEESVTPLSQALKSGREILKITSILECLAVITFVGGNDPEQTEKSMQIIWQMIHPKLGSNVVATKPSPAVISAVVSSWAFLLTTVDRWTLGPKIFQETVTYLSTLLEKDDRSVRIAAGEALAVIYELGTLEKFAAEVKGSANGSVKEGGVSQEALMHMHGLKAKVTKQVRELSVEAGGKGSAKKDLNTQRNLFKDLVEFLEDGYAPETSTKVGGDYLQTSTWYQMIQLNYLKHFLGGGFIKHMQENEFLHDVFSFTPKKIGGGKLSNDEKRLFKSPNSALNKARTQFLAKQRMLAKNMNVGHYAATAMEEE”, the “soluble on expression in E. coli” value is reported as “soluble”. With “MGRNKEFDTALVLHRAIEVFGEYGYEGTSLQDLLSHLGIARQSLYDTYGTKRDLFLSAVKSYLEGKNAAVMERLEAPGSVKEAIRDIFQEGVNALRDPERAKACYIINSAIEQIPHDPELARYFERQSKQLEDAFYHGLLRAKDQGELNGEDTDISALARYLNQSRLSLTFIAKVTADMDRLQDHVDVSLSVLD” the “soluble on expression in E. coli” value was “soluble”. For “MGRSQATAESYRDSLTIFKNYLVGELGKSISTFQFSDCTKECIYNFREYLLANGSQPSTVNVRVAAIRAYLNYASDMDISVQSVALAISQISPCLEHHHHHH”, the “soluble on expression in E. coli” value was “not soluble”. With “MGSDDQSAGDRIQKGFQINYMILRDADSGKIIWQENKDFSAPDQEHEARVPVKILDMRAVSREINFSTIESMENFRLDQKVLFKGRIMEEWFFEMGFVGANTTNTWQSTIEAAPESQMMPAKVLNGNVTIQTSFYDNETLITKSVVRLYYILEHHHHHH” the “soluble on expression in E. coli” value was “not soluble”. In the case of “MGSDKIHHHHHHAACSNDDEPGIDKGGQKGELIDAISIAFTSSSAPATRADKGEIEGVGTENNVYVAYLFAKENDPQHEGAKVGDWTVKRVAGDSNTDDKDVAAAIGEGDVATPGTKKNMCTFNGVRQGDSVYVVVNDPQMTLATAQTLAHQGDKSEAAIRAYISNLSKSYLNDLTVTKDGTQGKKYIMAGVSAIPTNPNIPNGSTVKVSIPLNRELAKVFFNASVTTNPVYEAYGKMAIKDAVWENPTGTKDPDGIVVVRIPRRVSPFTAQARDWYFPQSADATAKDWDVEGWLKAFAGESQSVPGTAEVPGTTLALNKGEYNADAKEYRLTWVVGEKALADGATPAAASMVYVKSDKLYSPYFYVTPNYADNAGCATVVVTQATYIGANTLLEPTITEQMLSEALDDSDFQTATSTDGSVKYDKLAADFWNTGANVAALVAFLEKNATYKLALRGETDPSKKEAAITIKPNDKRYYRADVANYSDDETTSMKITERNTFYHITGTITTLGAKSIEDAINSDNIDMLVQVVVKPWKYVVNNINM”, the “soluble on expression in E. coli” value is reported as “not soluble”. For “MGSDKIHHHHHHAATLLASCNKDEEETEIQGFKVLEYRPAPGQFINEGFDCQTMEEANAYAEERFNKKLYVSLGSFGGYITVKMPKEIKNRKGYDFGIIGNPFSGSSEPGIVWVSEDANGNGKADDVWYELKGSDEPERDYSVTYHRPDAAGDIPWEDNKGESGIIKYLPQYHDQMYYPNWIKEDSYTLKGSMLEARTEQEGGIWKNKDFGKGYADNWGSDMAKDDNGNYRYNQFDLDDAVDQNGNPVTLERIHFVKVQSAILKNVESIGEVSTEVVGFKAF”, the “soluble on expression in E. coli” value was “not soluble”. With “MGSDKIHHHHHHACGNSDGAGEDPGVPYLAKKGEPVDGVRIGWDYGTIRQLATRGGYPRSIRLQDNTVVAVYENYDTGYEMRCSTDEGSTWGDPVILFPIHSITNDKGTARINIANSEIIQLANGDLLAACNYRPQTPEITPFAIAVRRSTDNGVTWSDPQIIYEAEPRFSDGCWEPSFLQLPNEEVQVYFANEGPYTHSNEQEISMMTSVDNGKTWGGYKTVCFRAGSRDGMPVSKVVGDEIVCVIEDCGFVTFKPYTVRTKLSDNWSSPVLADSPNRAMALGEPVEDWIYMGAPYLGVLPTGETLLSYQVDDIRHDDQLGDRLPYSTMEVAIGDKNARNFVRRTRPFPVPAGKHAVWPSVAVWDANTIAALATSNYQGGTEAPFFMKGHVMRDLEVNSSDIVNYPIFIGHTGICNLRLGVGKDADNLYITCKVKDGELYSGGQGTQKGSGVFIYLDTKNECLKEPAEGVYKVWCSYKGDITVWQGNKGKWENSELEGLQITPSVVSGGYELAFTIPLNRSFNKDAMRLCATLSTKTYTETLVHSNADRSCTWMKMNLGGH” the “soluble on expression in E. coli” value was “not soluble”.
